Experimental data as given in the Human Domainome abundance scans (Beltran et al. 2025).
± gives the uncertainty stated by the source.

Assay: abundance fitness (aPCA) (normalised: wild type 0, dead -1); higher = more abundant; growth selection in yeast, the domain comes from the species named
Settings: Homo sapiens

Row | Substance | abundance fitness
1 | BAG family molecular chaperone regulator 3 G35C, O95817 | 0.146 ± 0.17
2 | SAFB-like transcription modulator Q54F, Q9NWH9 | -0.068 ± 0.1
3 | SAFB-like transcription modulator K20T, Q9NWH9 | -0.212 ± 0.053
4 | BAG family molecular chaperone regulator 3 N50G, O95817 | -0.358 ± 0.13
5 | BAG family molecular chaperone regulator 3 G15Q, O95817 | 0.828 ± 0.094
6 | SAFB-like transcription modulator R26Y, Q9NWH9 | -0.579 ± 0.27
7 | BAG family molecular chaperone regulator 3 I30R, O95817 | -0.133 ± 0.084
8 | BAG family molecular chaperone regulator 3 F39Q, O95817 | -0.633 ± 0.5
9 | BAG family molecular chaperone regulator 3 R45T, O95817 | -0.409 ± 0.28
10 | BAG family molecular chaperone regulator 3 R53D, O95817 | -0.822 ± 0.49
11 | BAG family molecular chaperone regulator 3 T46P, O95817 | -0.752 ± 0.32
12 | SAFB-like transcription modulator D24A, Q9NWH9 | -0.217 ± 0.033
13 | SAFB-like transcription modulator D29N, Q9NWH9 | -0.483 ± 0.063
14 | BAG family molecular chaperone regulator 3 R19M, O95817 | -0.37 ± 0.28
15 | BAG family molecular chaperone regulator 3 P24Q, O95817 | -0.21 ± 0.14
16 | BAG family molecular chaperone regulator 3 A13E, O95817 | -0.47 ± 0.28
17 | SAFB-like transcription modulator N38L, Q9NWH9 | -0.247 ± 0.05
18 | BAG family molecular chaperone regulator 3 V40C, O95817 | -0.269 ± 0.13
19 | BAG family molecular chaperone regulator 3 P24K, O95817 | 0.269 ± 0.16
20 | SAFB-like transcription modulator P63I, Q9NWH9 | -0.165 ± 0.057
21 | SAFB-like transcription modulator R37W, Q9NWH9 | -1.26 ± 0.071
22 | SAFB-like transcription modulator G19W, Q9NWH9 | -0.72 ± 0.35
23 | BAG family molecular chaperone regulator 3 E27L, O95817 | -0.912 ± 0.2
24 | BAG family molecular chaperone regulator 3 S56E, O95817 | -0.24 ± 0.25

Row | Substance | abundance fitness
25 | SAFB-like transcription modulator I56P, Q9NWH9 | -0.457 ± 0.05
26 | BAG family molecular chaperone regulator 3 S14F, O95817 | -0.528 ± 0.28
27 | BAG family molecular chaperone regulator 3 D31P, O95817 | -0.886 ± 0.22
28 | SAFB-like transcription modulator L52R, Q9NWH9 | -0.808 ± 0.057
29 | SAFB-like transcription modulator K45T, Q9NWH9 | -0.095 ± 0.053
30 | SAFB-like transcription modulator D62V, Q9NWH9 | -0.397 ± 0.039
31 | BAG family molecular chaperone regulator 3 Q33C, O95817 | -0.352 ± 0.2
32 | BAG family molecular chaperone regulator 3 P52C, O95817 | -0.092 ± 0.3
33 | SAFB-like transcription modulator E33W, Q9NWH9 | -0.871 ± 0.1
34 | BAG family molecular chaperone regulator 3 E57I, O95817 | -0.566 ± 0.36
35 | BAG family molecular chaperone regulator 3 V40N, O95817 | 0.081 ± 0.23
36 | SAFB-like transcription modulator K53P, Q9NWH9 | -0.778 ± 0.058
37 | SAFB-like transcription modulator K21S, Q9NWH9 | -0.198 ± 0.056
38 | SAFB-like transcription modulator R37M, Q9NWH9 | -0.601 ± 0.064
39 | BAG family molecular chaperone regulator 3 T46C, O95817 | -0.312 ± 0.086
40 | SAFB-like transcription modulator K45P, Q9NWH9 | -0.194 ± 0.077
41 | BAG family molecular chaperone regulator 3 T47I, O95817 | -0.468 ± 0.23
42 | BAG family molecular chaperone regulator 3 P23Q, O95817 | -0.83 ± 0.33
43 | SAFB-like transcription modulator I22G, Q9NWH9 | -0.562 ± 0.044
44 | SAFB-like transcription modulator L39K, Q9NWH9 | -0.179 ± 0.046
45 | SAFB-like transcription modulator P63K, Q9NWH9 | -0.354 ± 0.074
46 | BAG family molecular chaperone regulator 3 G58D, O95817 | 0.238 ± 0.18
47 | BAG family molecular chaperone regulator 3 V12Y, O95817 | 0.199 ± 0.12
48 | BAG family molecular chaperone regulator 3 Q33Y, O95817 | -0.545 ± 0.46

Row | Substance | abundance fitness
49 | BAG family molecular chaperone regulator 3 P23F, O95817 | -0.697 ± 0.44
50 | BAG family molecular chaperone regulator 3 G15D, O95817 | 1.2 ± 0.092
51 | BAG family molecular chaperone regulator 3 Q33V, O95817 | -0.428 ± 0.068
52 | SAFB-like transcription modulator G60R, Q9NWH9 | -0.238 ± 0.033
53 | SAFB-like transcription modulator K45N, Q9NWH9 | -0.334 ± 0.086
54 | BAG family molecular chaperone regulator 3 W26K, O95817 | 0.189 ± 0.081
55 | SAFB-like transcription modulator K35S, Q9NWH9 | -0.034 ± 0.07
56 | BAG family molecular chaperone regulator 3 P32Q, O95817 | -0.205 ± 0.28
57 | SAFB-like transcription modulator S32T, Q9NWH9 | -0.048 ± 0.068
58 | SAFB-like transcription modulator S50C, Q9NWH9 | -0.342 ± 0.082
59 | BAG family molecular chaperone regulator 3 E27Q, O95817 | -0.222 ± 0.3
60 | BAG family molecular chaperone regulator 3 S56L, O95817 | -0.125 ± 0.14
61 | BAG family molecular chaperone regulator 3 R53C, O95817 | -0.551 ± 0.23
62 | BAG family molecular chaperone regulator 3 F39T, O95817 | -0.587 ± 0.26
63 | SAFB-like transcription modulator K31E, Q9NWH9 | -0.219 ± 0.062
64 | BAG family molecular chaperone regulator 3 V54A, O95817 | -0.719 ± 0.26
65 | SAFB-like transcription modulator S32R, Q9NWH9 | -0.176 ± 0.045
66 | SAFB-like transcription modulator E67W, Q9NWH9 | -0.27 ± 0.037
67 | SAFB-like transcription modulator D24Y, Q9NWH9 | -0.433 ± 0.034
68 | BAG family molecular chaperone regulator 3 T34V, O95817 | 0.011 ± 0.17
69 | SAFB-like transcription modulator N38P, Q9NWH9 | -1.06 ± 0.15
70 | BAG family molecular chaperone regulator 3 E57C, O95817 | -0.564 ± 0.15
71 | BAG family molecular chaperone regulator 3 W26A, O95817 | -0.534 ± 0.092
72 | BAG family molecular chaperone regulator 3 D31R, O95817 | -0.473 ± 0.071

Row | Substance | abundance fitness
73 | BAG family molecular chaperone regulator 3 D41H, O95817 | -0.541 ± 0.095
74 | BAG family molecular chaperone regulator 3 V40L, O95817 | -0.664 ± 0.084
75 | BAG family molecular chaperone regulator 3 G58F, O95817 | -0.382 ± 0.37
76 | SAFB-like transcription modulator K35M, Q9NWH9 | -0.035 ± 0.079
77 | BAG family molecular chaperone regulator 3 D20P, O95817 | -0.22 ± 0.19
78 | BAG family molecular chaperone regulator 3 N50F, O95817 | 0.181 ± 0.11
79 | BAG family molecular chaperone regulator 3 L22D, O95817 | -0.753 ± 0.42
80 | BAG family molecular chaperone regulator 3 G15V, O95817 | 0.89 ± 0.078
81 | SAFB-like transcription modulator V47Y, Q9NWH9 | -0.525 ± 0.044
82 | BAG family molecular chaperone regulator 3 D51K, O95817 | -0.037 ± 0.3
83 | SAFB-like transcription modulator I28Y, Q9NWH9 | -0.306 ± 0.15
84 | BAG family molecular chaperone regulator 3 D41C, O95817 | -0.641 ± 0.42
85 | BAG family molecular chaperone regulator 3 S44Q, O95817 | -0.44 ± 0.29
86 | BAG family molecular chaperone regulator 3 D51V, O95817 | -0.666 ± 0.12
87 | SAFB-like transcription modulator G60N, Q9NWH9 | -0.108 ± 0.04
88 | SAFB-like transcription modulator I66R, Q9NWH9 | -0.443 ± 0.061
89 | SAFB-like transcription modulator I56G, Q9NWH9 | -0.916 ± 0.072
90 | SAFB-like transcription modulator E59I, Q9NWH9 | -0.784 ± 0.1
91 | BAG family molecular chaperone regulator 3 R19T, O95817 | -0.169 ± 0.096
92 | SAFB-like transcription modulator D62M, Q9NWH9 | -0.69 ± 0.081
93 | SAFB-like transcription modulator I41M, Q9NWH9 | 0.08 ± 0.075
94 | BAG family molecular chaperone regulator 3 S44N, O95817 | -0.035 ± 0.25
95 | SAFB-like transcription modulator K31W, Q9NWH9 | -0.237 ± 0.053
96 | SAFB-like transcription modulator V44N, Q9NWH9 | 0.048 ± 0.058
